No end group written: not given here.
Tests used:
[1] = molecular target: human Kv1.1 voltage-gated potassium channel (human) (UniProt Q09470); test: cell-based or functional assay
[2] = molecular target: human Kv1.3 voltage-gated potassium channel (human) (UniProt P22001); test: cell-based or functional assay
[3] = molecular target: DNP(3)-BSA (2,4-dinitrophenol conjugated to bovine serum albumin, 3 DNP moieties per BSA) (bovine) (UniProt P02769); test: BIAcore SPR; antibody captured on anti-human IgG Fc surface, DNP(3)-BSA injected (0.78-100 nM); apparent constants
[4] = molecular target: DNP(31)-BSA (2,4-dinitrophenol conjugated to bovine serum albumin, 31 DNP moieties per BSA) (bovine) (UniProt P02769); test: BIAcore SPR; antibody captured on anti-human IgG Fc surface, DNP(31)-BSA injected (0.78-100 nM); apparent constants
[5] = molecular target: DNP(3)-BSA (2,4-dinitrophenol conjugated to bovine serum albumin, 3 DNP moieties per BSA) (bovine) (UniProt P02769); test: BIAcore SPR; antibody captured on anti-human IgG Fc surface, DNP(3)-BSA injected (0.78-100 nM); apparent constants; DNP(3)-BSA, not DNP(31)-BSA
[6] = molecular target: DNP(31)-BSA (2,4-dinitrophenol conjugated to bovine serum albumin, 31 DNP moieties per BSA) (bovine) (UniProt P02769); test: BIAcore SPR; antibody captured on anti-human IgG Fc surface, DNP(31)-BSA injected (0.39-50 nM); apparent constants

Chain of human Kv1.1 voltage-gated potassium channel (human) (Q09470 whole entry): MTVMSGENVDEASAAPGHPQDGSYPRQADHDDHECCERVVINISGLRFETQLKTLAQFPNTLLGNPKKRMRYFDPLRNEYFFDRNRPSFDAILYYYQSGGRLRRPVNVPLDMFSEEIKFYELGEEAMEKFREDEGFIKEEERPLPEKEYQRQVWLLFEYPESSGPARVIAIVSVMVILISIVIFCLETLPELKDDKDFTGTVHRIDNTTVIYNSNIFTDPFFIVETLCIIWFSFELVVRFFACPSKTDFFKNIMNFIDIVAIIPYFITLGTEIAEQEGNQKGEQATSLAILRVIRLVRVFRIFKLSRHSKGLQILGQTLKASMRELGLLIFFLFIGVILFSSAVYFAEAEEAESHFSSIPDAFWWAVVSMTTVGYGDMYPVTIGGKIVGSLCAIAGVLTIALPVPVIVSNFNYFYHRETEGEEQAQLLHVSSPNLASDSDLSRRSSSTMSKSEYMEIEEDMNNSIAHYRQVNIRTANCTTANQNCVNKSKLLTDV
Chain of human Kv1.3 voltage-gated potassium channel (human) (P22001 whole entry): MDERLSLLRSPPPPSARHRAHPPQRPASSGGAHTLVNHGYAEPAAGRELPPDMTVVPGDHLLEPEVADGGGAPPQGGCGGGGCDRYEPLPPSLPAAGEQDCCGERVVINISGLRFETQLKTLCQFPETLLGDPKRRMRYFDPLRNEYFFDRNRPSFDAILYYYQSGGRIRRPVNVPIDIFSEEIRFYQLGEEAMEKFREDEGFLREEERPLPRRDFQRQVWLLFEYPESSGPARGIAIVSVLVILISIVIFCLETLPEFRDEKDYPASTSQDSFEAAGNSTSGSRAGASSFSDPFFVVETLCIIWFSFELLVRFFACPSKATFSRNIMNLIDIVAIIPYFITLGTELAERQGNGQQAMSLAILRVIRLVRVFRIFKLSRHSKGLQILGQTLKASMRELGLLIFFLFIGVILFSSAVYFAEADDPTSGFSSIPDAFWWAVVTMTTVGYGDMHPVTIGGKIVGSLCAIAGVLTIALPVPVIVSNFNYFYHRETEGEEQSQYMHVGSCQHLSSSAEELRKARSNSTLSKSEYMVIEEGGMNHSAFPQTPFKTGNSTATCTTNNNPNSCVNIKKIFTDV
Chain of DNP(3)-BSA (2,4-dinitrophenol conjugated to bovine serum albumin, 3 DNP moieties per BSA) (bovine) (P02769 25-607 limits assumed): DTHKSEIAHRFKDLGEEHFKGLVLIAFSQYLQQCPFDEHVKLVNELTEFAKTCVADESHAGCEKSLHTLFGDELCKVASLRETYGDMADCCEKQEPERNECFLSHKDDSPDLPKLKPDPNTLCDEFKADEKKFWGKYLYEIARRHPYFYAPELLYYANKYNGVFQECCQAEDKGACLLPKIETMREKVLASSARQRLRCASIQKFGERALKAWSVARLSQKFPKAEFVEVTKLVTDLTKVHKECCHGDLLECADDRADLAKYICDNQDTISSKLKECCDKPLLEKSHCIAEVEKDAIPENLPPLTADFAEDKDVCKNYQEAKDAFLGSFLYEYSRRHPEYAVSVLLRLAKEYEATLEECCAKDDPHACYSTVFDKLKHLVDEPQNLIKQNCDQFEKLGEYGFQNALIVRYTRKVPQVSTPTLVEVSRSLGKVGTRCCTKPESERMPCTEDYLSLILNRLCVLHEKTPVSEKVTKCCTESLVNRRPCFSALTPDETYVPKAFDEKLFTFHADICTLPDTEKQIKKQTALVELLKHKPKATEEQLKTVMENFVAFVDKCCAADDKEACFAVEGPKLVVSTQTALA
Chain of DNP(31)-BSA (2,4-dinitrophenol conjugated to bovine serum albumin, 31 DNP moieties per BSA) (bovine) (P02769 25-607 limits assumed): as above

Molecule 20 kDa-PEG-ShK (peptide) has a Kv1.1 IC50 (asterisk: whole cell patch clamp) [1] of 1.63 nM, a Kv1.3 IC50 (asterisk: whole cell patch clamp) [2] of 0.299 nM and a Potency Relative to ShK (WB, IL2) [2] of 5.67 fold.

Work on “Monovalent Fc/Fc-L10-ShK[2-35] heterodimer (IgG1) (Fc fusion)” yielded a Potency Relative to ShK (WB, IL2) [2] of 32.1 fold, a WB (IFNg) IC50 [2] of 5.2 nM and a WB (IL-2) IC50 [2] of 2.15 nM.

20 kDa-PEG-[Lys16]ShK (peptide) gave a Potency Relative to ShK (WB, IL2) [2] of 1.37 fold.

B1: Bivalent Fc-L10-ShK[2-35] homodimer (IgG1) (Fc fusion)
chain: GGGGSGGGGSSCIDTIPKSRCTAFQCKHSMKYRLSFCRKTCGTC
modifications: not fully specified (N-terminus, bridges); ends and bridges not checked; also: bivalent homodimer via IgG1 Fc
B1 was tested, and the Kv1.1 IC50 (asterisk: whole cell patch clamp) [1] was 0.411 nM, the Kv1.3 IC50 (asterisk: whole cell patch clamp) [2] was 0.116 nM and the Potency Relative to ShK (WB, IL2) [2] was 8.73 fold. The WB (IFNg) IC50 [2] was 2.29 nM and the WB (IL-2) IC50 [2] was 0.585 nM.

B2: Bivalent Fc-L10-ShK[1-35] homodimer (IgG1) (Fc fusion)
chain: GGGGSGGGGSRSCIDTIPKSRCTAFQCKHSMKYRLSFCRKTCGTC
modifications: not fully specified (N-terminus, bridges); ends and bridges not checked; also: bivalent homodimer via IgG1 Fc
For B2, the Kv1.1 IC50 (asterisk: whole cell patch clamp) [1] was 0.067 nM, the Kv1.3 IC50 (asterisk: whole cell patch clamp) [2] was 0.015 nM and the Potency Relative to ShK (WB, IL2) [2] was 5.76 fold. The WB (IFNg) IC50 [2] was 0.32 nM and the WB (IL-2) IC50 [2] was 0.386 nM.

B3: anti-DNP antibody 3A1 (purified from hybridoma) (antibody, human IgG2, kappa, V domains shown)
VH: QVQLQESGPGLVKPSETLSLTCTVSGGSISHYYWSWIRQPPGKGLGWIGYIYYSGSTNYNPSLKSRVTISVDTSKNQFSLKLTSVTAADTAVYYCARARGDGYNYPDAFDIWGQGTMVTVSS
VL: DIQMTQSPSSVSASVGDRVTITCRASQGISNWLAWYQRKPGKAPKLLIYAASSLQSGVPSRFSGSGSGTDFTLTISSLQPEDFAAYYCQQASSFPWTFGQGTRVEIKR
Work on B3 yielded a Kd [3] of 526 nM, a koff [3] of 0.00065 s⁻¹ and a Kd [4] of 9 nM. It also gave a koff [4] of 0.00031 s⁻¹, a kon [4] of 34000 M⁻¹ s⁻¹ and a kon [5] of 1200 M⁻¹ s⁻¹.

B4: anti-DNP antibody 3B1 (purified from hybridoma) (antibody, human IgG2, kappa, V domains shown)
VH: QVQLQESGPGLVKPSETLSLTCTVSGGSISSYYWSWIRQPPGKGLEWIGYIYYSGNTNSNPSLKSRVTISVDTSKNQFSLKLSSVTAADTAVYYCARTYYDSSGYYYRAFDIWGQGTMVTVSS
VL: DIQMTQSPSSLSASEGDRVTITCRASQGIRNDLGWYQQKPGKAPKRLIYAASSLQSGVPLRFSGSGSGTEFTLTISSLQPEDFATYYCLQYNSYPWTFGQGTKVEIKR
B4 was tested, and the Kd [3] was 3 nM, the koff [3] was 0.00036 s⁻¹ and the kon [3] was 140000 M⁻¹ s⁻¹. The Kd [4] was 0.2 nM, the koff [4] was 5.8e-05 s⁻¹ and the kon [4] was 370000 M⁻¹ s⁻¹.

B5: anti-DNP antibody 3B1-G2 (recombinant, CHO) (antibody, human IgG2, kappa, V domains shown)
VH: B4 VH
VL: B4 VL
B5 showed a Kd [6] of 0.7 nM, a koff [6] of 0.00031 s⁻¹ and a kon [6] of 420000 M⁻¹ s⁻¹.

From patent publication US20150044236A1
